# Measurements as given in IntAct's records for PubMed 31515488.
# B1: Keratin, type II cytoskeletal 6A (Homo sapiens), P02538 (parent)
# chain: MASTSTTIRSHSSSRRGFSANSARLPGVSRSGFSSVSVSRSRGSGGLGGACGGAGFGSRSLYGLGGSKRISIGGGSCAISGGYGSRAGGSYGFGGAGSGFGFGGGAGIGFGLGGGAGLAGGFGGPGFPVCPPGGIQEVTVNQSLLTPLNLQIDPTIQRVRAEEREQIKTLNNKFASFIDKVRFLEQQNKVLETKWTLLQEQGTKTVRQNLEPLFEQYINNLRRQLDSIVGERGRLDSELRGMQDLVEDFKNKYEDEINKRTAAENEFVTLKKDVDAAYMNKVELQAKADTLTDEINFLRALYDAELSQMQTHISDTSVVLSMDNNRNLDLDSIIAEVKAQYEEIAQRSRAEAESWYQTKYEELQVTAGRHGDDLRNTKQEIAEINRMIQRLRSEIDHVKKQCANLQAAIADAEQRGEMALKDAKNKLEGLEDALQKAKQDLARLLKEYQELMNVKLALDVEIATYRKLLEGEECRLNGEGVGQVNISVVQSTVSSGYGGASGVGSGLGLGGGSSYSYGSGLGVGGGFSSSSGRAIGGGLSSVGGGSSTIKYTTTSSSSRKSYKH
# partner: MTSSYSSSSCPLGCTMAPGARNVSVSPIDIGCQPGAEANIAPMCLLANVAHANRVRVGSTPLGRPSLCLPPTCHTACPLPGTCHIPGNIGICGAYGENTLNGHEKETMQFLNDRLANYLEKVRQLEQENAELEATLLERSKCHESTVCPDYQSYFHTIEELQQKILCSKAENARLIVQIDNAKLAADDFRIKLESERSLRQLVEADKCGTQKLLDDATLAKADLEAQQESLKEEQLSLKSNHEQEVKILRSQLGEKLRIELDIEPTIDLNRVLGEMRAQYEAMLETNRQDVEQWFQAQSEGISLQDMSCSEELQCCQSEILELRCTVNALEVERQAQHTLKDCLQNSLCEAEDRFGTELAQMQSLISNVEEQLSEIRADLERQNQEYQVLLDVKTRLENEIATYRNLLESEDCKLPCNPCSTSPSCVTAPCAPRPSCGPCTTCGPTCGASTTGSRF
# B2: Protein BANP (Homo sapiens), Q8N9N5-2 (parent)
# chain: MMSEHDLADVVQIAVEDLSPDHPVVLENHVVTDEDEPALKRQRLEINCQDPSIKSFLYSINQTICLRLDSIEAKLQALEATCKSLEEKLDLVTNKQHSPIQVPMVAGSPLGATQTCNKVRCAVPGRRQNTIVVKVPGQEDSHHEDGESGSEASDSVSSCGQAGSQSIGSNVTLITLNSEEDYPNGTWLGDENNPEMRVRCAIIPSDMLHISTNCRTAEKMALTLLDYLFHREVQAVSNLSGQGKHGKKQLDPLTIYGIRCHLFYKFGITESDWYRIKQSIDSKCRTAWRRKQRGQSLAVKSFSRRTPNSSSYCPSEPMMSTPPPASELPQPQPQPQALHYALANAQQVQIHQIGEDGQVQVIPQGHLHIAQVPQGEQVQITQDSEGNLQIHHVGQDGQVLQGAQLIAVASSDPAAAGVDGSPLQGSDIQVQYVQLAPVSDHTAGAQTAEALQPTLQPEMQLEHGAIQIQ
# B3: WW domain-containing adapter protein with coiled-coil (Homo sapiens), Q9BTA9-1 (parent)
# chain: MVMYARKQQRLSDGCHDRRGDSQPYQALKYSSKSHPSSGDHRHEKMRDAGDPSPPNKMLRRSDSPENKYSDSTGHSKAKNVHTHRVRERDGGTSYSPQENSHNHSALHSSNSHSSNPSNNPSKTSDAPYDSADDWSEHISSSGKKYYYNCRTEVSQWEKPKEWLEREQRQKEANKMAVNSFPKDRDYRREVMQATATSGFASGMEDKHSSDASSLLPQNILSQTSRHNDRDYRLPRAETHSSSTPVQHPIKPVVHPTATPSTVPSSPFTLQSDHQPKKSFDANGASTLSKLPTPTSSVPAQKTERKESTSGDKPVSHSCTTPSTSSASGLNPTSAPPTSASAVPVSPVPQSPIPPLLQDPNLLRQLLPALQATLQLNNSNVDISKINEVLTAAVTQASLQSIIHKFLTAGPSAFNITSLISQAAQLSTQAQPSNQSPMSLTSDASSPRSYVSPRISTPQTNTVPIKPLISTPPVSSQPKVSTPVVKQGPVSQSATQQPVTADKQQGHEPVSPRSLQRSSSQRSPSPGPNHTSNSSNASNATVVPQNSSARSTCSLTPALAAHFSENLIKHVQGWPADHAEKQASRLREEAHNMGTIHMSEICTELKNLRSLVRVCEIQATLREQRILFLRQQIKELEKLKNQNSFMV
# B4: Transcription factor 4 (Homo sapiens), P15884 (parent)
# chain: MHHQQRMAALGTDKELSDLLDFSAMFSPPVSSGKNGPTSLASGHFTGSNVEDRSSSGSWGNGGHPSPSRNYGDGTPYDHMTSRDLGSHDNLSPPFVNSRIQSKTERGSYSSYGRESNLQGCHQQSLLGGDMDMGNPGTLSPTKPGSQYYQYSSNNPRRRPLHSSAMEVQTKKVRKVPPGLPSSVYAPSASTADYNRDSPGYPSSKPATSTFPSSFFMQDGHHSSDPWSSSSGMNQPGYAGMLGNSSHIPQSSSYCSLHPHERLSYPSHSSADINSSLPPMSTFHRSGTNHYSTSSCTPPANGTDSIMANRGSGAAGSSQTGDALGKALASIYSPDHTNNSFSSNPSTPVGSPPSLSAGTAVWSRNGGQASSSPNYEGPLHSLQSRIEDRLERLDDAIHVLRNHAVGPSTAMPGGHGDMHGIIGPSHNGAMGGLGSGYGTGLLSANRHSLMVGTHREDGVALRGSHSLLPNQVPVPQLPVQSATSPDLNPPQDPYRGMPPGLQGQSVSSGSSEIKSDDEGDENLQDTKSSEDKKLDDDKKDIKSITSNNDDEDLTPEQKAEREKERRMANNARERLRVRDINEAFKELGRMVQLHLKSDKPQTKLLILHQAVAVILSLEQQVRERNLNPKAACLKRREEEKVSSEPPPLSLAGPHPGMGDASNHMGQM
# B5: Uncharacterized protein C3orf62 (Homo sapiens), Q6ZUJ4 (parent)
# chain: MHYIKTWSLLGEMSEKLRRCRKELTAAIDRAFEGVSYSQECTGQQRLELSAAPLSFSLPVHRLLCRRHPLAACSSAAPFAAVPCAPENENPAFATNHAPVNAKPHALCPERKPLTSKENVLMHSSILAPERESWRTAGEGENWRKENLRKDMERDLKADSNMPLNNSSQEVTKDLLDMIDHTSIRTIEELAGKIEFENELNHMCGHCQDSPFKEEAWALLMDKSPQKATDADPGSLKQAFDDHNIVETVLDLEEDYNVMTSFKYQIE
# B6: PHD finger protein 1 (Homo sapiens), O43189 (parent)
# chain: MAQPPRLSRSGASSLWDPASPAPTSGPRPRLWEGQDVLARWTDGLLYLGTIKKVDSAREVCLVQFEDDSQFLVLWKDISPAALPGEELLCCVCRSETVVPGNRLVSCEKCRHAYHQDCHVPRAPAPGEGEGTSWVCRQCVFAIATKRGGALKKGPYARAMLGMKLSLPYGLKGLDWDAGHLSNRQQSYCYCGGPGEWNLKMLQCRSCLQWFHEACTQCLSKPLLYGDRFYEFECCVCRGGPEKVRRLQLRWVDVAHLVLYHLSVCCKKKYFDFDREILPFTSENWDSLLLGELSDTPKGERSSRLLSALNSHKDRFISGREIKKRKCLFGLHARMPPPVEPPTGDGALTSFPSGQGPGGGVSRPLGKRRRPEPEPLRRRQKGKVEELGPPSAVRNQPEPQEQRERAHLQRALQASVSPPSPSPNQSYQGSSGYNFRPTDARCLPSSPIRMFASFHPSASTAGTSGDSGPPDRSPLELHIGFPTDIPKSAPHSMTASSSSVSSPSPGLPRRSAPPSPLCRSLSPGTGGGVRGGVGYLSRGDPVRVLARRVRPDGSVQYLVEWGGGGIF
# B7: BUD13 homolog (Homo sapiens), Q9BRD0 (parent)
# chain: MAAAPPLSKAEYLKRYLSGADAGVDRGSESGRKRRKKRPKPGGAGGKGMRIVDDDVSWTAISTTKLEKEEEEDDGDLPVVAEFVDERPEEVKQMEAFRSSAKWKLLGGHNEDLPSNRHFRHDTPDSSPRRVRHGTPDPSPRKDRHDTPDPSPRRARHDTPDPSPLRGARHDSDTSPPRRIRHDSSDTSPPRRARHDSPDPSPPRRPQHNSSGASPRRVRHDSPDPSPPRRARHGSSDISSPRRVHNNSPDTSRRTLGSSDTQQLRRARHDSPDLAPNVTYSLPRTKSGKAPERASSKTSPHWKESGASHLSFPKNSKYEYDPDISPPRKKQAKSHFGDKKQLDSKGDCQKATDSDLSSPRHKQSPGHQDSDSDLSPPRNRPRHRSSDSDLSPPRRRQRTKSSDSDLSPPRRSQPPGKKAAHMYSGAKTGLVLTDIQREQQELKEQDQETMAFEAEFQYAETVFRDKSGRKRNLKLERLEQRRKAEKDSERDELYAQWGKGLAQSRQQQQNVEDAMKEMQKPLARYIDDEDLDRMLREQEREGDPMANFIKKNKAKENKNKKVRPRYSGPAPPPNRFNIWPGYRWDGVDRSNGFEQKRFARLASKKAVEELAYKWSVEDM
# partner: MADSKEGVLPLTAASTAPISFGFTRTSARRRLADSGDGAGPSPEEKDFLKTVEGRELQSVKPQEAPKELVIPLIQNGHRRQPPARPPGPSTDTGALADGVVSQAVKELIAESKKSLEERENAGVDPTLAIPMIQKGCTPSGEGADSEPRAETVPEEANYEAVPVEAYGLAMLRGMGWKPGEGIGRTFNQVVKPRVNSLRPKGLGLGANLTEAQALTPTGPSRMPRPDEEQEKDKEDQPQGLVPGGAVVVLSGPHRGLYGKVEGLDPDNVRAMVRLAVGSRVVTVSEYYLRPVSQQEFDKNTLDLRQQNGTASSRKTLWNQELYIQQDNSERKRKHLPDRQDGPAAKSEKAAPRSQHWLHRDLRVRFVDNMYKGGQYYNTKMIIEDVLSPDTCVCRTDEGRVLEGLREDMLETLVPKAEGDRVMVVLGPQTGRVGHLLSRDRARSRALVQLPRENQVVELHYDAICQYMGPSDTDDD
# B8: WASH complex subunit 3 (Homo sapiens), Q9Y3C0 (parent)
# chain: MDEDGLPLMGSGIDLTKVPAIQQKRTVAFLNQFVVHTVQFLNRFSTVCEEKLADLSLRIQQIETTLNILDAKLSSIPGLDDVTVEVSPLNVTSVTNGAHPEATSEQPQQNSTQDSGLQESEVSAENILTVAKDPRYARYLKMVQVGVPVMAIRNKMISEGLDPDLLERPDAPVPDGESEKTVEESSDSESSFSD
# Variants of: B1
# Settings: with krt38_human KRT38, O76015
row,effect of a mutation on the interaction,Variant
1,with no effect,P154S

# Variants of: B2
# Settings: with kcc2d_human CAMK2D
row,effect of a mutation on the interaction,Variant
1,with no effect,A162V

# Variants of: B2
# Settings: with FAM117B
row,effect of a mutation on the interaction,Variant
1,with no effect,A162V

# Variants of: B2
# Settings: with aakb2_human PRKAB2, O43741
# aakb2_human PRKAB2, O43741, sequence (O43741 whole entry): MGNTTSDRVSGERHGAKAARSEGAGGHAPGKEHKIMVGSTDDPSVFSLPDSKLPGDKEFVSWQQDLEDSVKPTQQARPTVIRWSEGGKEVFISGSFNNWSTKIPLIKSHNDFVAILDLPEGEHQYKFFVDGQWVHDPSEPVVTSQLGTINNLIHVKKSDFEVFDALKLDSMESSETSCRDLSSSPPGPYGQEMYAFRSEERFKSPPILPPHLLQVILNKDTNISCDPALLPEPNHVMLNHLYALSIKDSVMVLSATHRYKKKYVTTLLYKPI
row,effect of a mutation on the interaction,Variant
1,with no effect,A162V

# Variants of: B2
# Settings: with pf21a_human PHF21A
row,effect of a mutation on the interaction,Variant
1,with no effect,A162V

# Variants of: B3
# Settings: with KRT15, P19012
# KRT15, P19012, sequence (P19012 whole entry): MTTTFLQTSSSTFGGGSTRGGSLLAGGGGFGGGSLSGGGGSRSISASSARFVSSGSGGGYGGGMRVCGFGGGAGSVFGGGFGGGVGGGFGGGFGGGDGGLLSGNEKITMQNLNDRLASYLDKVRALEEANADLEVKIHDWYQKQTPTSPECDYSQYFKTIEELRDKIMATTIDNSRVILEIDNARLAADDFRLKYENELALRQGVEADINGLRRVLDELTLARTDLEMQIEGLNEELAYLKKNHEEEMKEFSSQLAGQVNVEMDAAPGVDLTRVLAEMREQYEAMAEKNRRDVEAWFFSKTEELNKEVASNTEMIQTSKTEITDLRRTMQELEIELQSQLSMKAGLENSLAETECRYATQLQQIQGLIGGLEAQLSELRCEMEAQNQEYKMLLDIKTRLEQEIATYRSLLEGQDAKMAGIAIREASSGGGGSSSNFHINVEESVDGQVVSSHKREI
row,effect of a mutation on the interaction,Variant
1,with no effect,S475L

# Variants of: B3
# Settings: with nf2l2_human NFE2L2, Q16236
# nf2l2_human NFE2L2, Q16236, sequence (Q16236 whole entry): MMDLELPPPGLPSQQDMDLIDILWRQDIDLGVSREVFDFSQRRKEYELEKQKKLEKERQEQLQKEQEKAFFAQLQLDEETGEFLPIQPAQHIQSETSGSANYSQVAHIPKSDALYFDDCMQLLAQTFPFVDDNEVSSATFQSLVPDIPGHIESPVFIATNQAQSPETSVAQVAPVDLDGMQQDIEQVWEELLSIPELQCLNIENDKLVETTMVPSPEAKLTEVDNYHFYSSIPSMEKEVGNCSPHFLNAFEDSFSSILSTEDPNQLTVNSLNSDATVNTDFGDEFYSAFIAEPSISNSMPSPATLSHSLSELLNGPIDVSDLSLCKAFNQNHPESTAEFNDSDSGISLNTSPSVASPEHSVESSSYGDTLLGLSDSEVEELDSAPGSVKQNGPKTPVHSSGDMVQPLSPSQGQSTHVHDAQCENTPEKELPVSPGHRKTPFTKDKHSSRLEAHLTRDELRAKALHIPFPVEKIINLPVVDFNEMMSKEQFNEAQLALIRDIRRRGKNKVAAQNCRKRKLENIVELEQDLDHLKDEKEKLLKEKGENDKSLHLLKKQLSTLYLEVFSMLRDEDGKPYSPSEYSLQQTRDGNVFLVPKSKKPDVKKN
row,effect of a mutation on the interaction,Variant
1,with no effect,S475L

# Variants of: B3
# Settings: with mtus2_human MTUS2, Q5JR59
row,effect of a mutation on the interaction,Variant
1,with no effect,S475L

# Variants of: B4
# Settings: with defi6_human DEF6, Q9H4E7
# defi6_human DEF6, Q9H4E7, sequence (Q9H4E7 whole entry): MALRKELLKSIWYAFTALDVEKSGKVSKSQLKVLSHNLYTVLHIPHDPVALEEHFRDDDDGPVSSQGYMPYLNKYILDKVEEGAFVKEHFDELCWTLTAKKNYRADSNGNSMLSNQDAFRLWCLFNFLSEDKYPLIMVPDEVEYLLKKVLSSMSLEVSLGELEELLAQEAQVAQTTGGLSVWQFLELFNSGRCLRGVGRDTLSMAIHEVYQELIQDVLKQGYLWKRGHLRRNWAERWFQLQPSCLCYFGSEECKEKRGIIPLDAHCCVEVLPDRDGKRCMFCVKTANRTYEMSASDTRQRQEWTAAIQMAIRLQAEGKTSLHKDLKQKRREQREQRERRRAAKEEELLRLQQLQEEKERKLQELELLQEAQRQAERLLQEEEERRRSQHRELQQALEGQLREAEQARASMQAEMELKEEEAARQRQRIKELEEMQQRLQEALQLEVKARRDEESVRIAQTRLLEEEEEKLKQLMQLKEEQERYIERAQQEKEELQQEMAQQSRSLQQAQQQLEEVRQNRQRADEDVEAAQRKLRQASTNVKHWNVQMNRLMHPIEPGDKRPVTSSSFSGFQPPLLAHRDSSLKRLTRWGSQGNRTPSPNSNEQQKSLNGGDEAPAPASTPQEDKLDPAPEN
row,effect of a mutation on the interaction,Variant
1,with no effect,N90S

# Variants of: B5
# Settings: with mr1l1_human MRFAP1L1, Q96HT8
# mr1l1_human MRFAP1L1, Q96HT8, sequence (Q96HT8 whole entry): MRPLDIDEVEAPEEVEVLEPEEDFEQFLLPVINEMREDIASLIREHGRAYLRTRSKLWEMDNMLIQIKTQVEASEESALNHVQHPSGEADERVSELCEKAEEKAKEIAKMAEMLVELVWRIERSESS
row,Variant,effect of a mutation on the interaction
1,E110K,with no effect
2,V60M,with no effect

# More lines, now with the values ahead:
row,effect of a mutation on the interaction,Variant
1,with no effect,M203I
2,with no effect,N142D

# Variants of: B6
# Settings: with dhb14_human HSD17B14, Q9BPX1
# dhb14_human HSD17B14, Q9BPX1, sequence (Q9BPX1 whole entry): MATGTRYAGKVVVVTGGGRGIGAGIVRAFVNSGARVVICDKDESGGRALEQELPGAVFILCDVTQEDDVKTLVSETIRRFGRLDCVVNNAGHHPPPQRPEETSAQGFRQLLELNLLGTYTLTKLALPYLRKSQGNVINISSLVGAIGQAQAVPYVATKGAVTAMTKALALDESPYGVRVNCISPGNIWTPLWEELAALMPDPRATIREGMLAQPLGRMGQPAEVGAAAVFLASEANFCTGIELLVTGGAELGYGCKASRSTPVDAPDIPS
row,effect of a mutation on the interaction,Variant
1,with no effect,S14L

# Variants of: B6
# Settings: with tri23_human TRIM23, P36406
# tri23_human TRIM23, P36406, sequence (P36406 whole entry): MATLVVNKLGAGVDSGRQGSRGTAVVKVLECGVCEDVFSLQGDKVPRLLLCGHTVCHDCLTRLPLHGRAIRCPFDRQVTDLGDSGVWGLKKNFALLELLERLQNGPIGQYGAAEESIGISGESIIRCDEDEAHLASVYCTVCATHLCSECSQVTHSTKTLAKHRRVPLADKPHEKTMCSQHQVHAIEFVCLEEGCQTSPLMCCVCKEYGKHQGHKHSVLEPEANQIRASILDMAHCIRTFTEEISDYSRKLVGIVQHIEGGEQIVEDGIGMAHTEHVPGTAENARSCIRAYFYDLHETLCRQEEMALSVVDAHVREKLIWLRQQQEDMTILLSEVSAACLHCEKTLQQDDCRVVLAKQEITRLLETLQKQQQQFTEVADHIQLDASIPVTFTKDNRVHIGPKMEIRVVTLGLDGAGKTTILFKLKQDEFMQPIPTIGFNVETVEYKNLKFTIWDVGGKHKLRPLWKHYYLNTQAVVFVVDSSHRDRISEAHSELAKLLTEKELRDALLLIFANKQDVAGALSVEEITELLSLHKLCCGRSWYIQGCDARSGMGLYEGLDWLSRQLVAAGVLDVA
row,effect of a mutation on the interaction,Variant
1,with no effect,S14L

# Variants of: B6
# Settings: with pdli7_human PDLIM7, Q9NR12
# pdli7_human PDLIM7, Q9NR12, sequence (Q9NR12 whole entry): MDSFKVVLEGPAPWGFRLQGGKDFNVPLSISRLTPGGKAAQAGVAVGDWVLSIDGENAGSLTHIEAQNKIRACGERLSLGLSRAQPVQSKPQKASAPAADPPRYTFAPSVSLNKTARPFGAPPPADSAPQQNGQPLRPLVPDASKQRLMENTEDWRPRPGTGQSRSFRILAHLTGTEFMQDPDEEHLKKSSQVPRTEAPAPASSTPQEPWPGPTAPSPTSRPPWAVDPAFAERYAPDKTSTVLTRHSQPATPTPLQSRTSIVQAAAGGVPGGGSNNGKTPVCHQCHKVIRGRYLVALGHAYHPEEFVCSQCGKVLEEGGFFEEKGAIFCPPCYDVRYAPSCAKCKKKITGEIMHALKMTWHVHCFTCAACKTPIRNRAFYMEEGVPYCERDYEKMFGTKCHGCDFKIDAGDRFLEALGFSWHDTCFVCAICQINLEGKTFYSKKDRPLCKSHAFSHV
row,effect of a mutation on the interaction,Variant
1,with no effect,S14L

# Variants of: B7
# Settings: with gpkow_human GPKOW
row,effect of a mutation on the interaction,Variant
1,with no effect,P148L

# Variants of: B8
# Settings: with optn_human OPTN
row,effect of a mutation on the interaction,Variant
1,with no effect,F44L

# Variants of: B8
# Settings: with ift20_human IFT20, Q8IY31
# ift20_human IFT20, Q8IY31, sequence (Q8IY31 whole entry): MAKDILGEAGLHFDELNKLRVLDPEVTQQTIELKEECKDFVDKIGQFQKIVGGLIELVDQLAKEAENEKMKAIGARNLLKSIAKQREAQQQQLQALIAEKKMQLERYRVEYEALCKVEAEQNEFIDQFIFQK
row,effect of a mutation on the interaction,Variant
1,with no effect,F44L

# Variants of: B8
# Settings: with abi2_human ABI2, Q9NYB9
row,effect of a mutation on the interaction,Variant
1,disrupting interaction strength,F44L

# Variants of: B8
# Settings: with ndc80_human NDC80, O14777
# ndc80_human NDC80, O14777, sequence (O14777 whole entry): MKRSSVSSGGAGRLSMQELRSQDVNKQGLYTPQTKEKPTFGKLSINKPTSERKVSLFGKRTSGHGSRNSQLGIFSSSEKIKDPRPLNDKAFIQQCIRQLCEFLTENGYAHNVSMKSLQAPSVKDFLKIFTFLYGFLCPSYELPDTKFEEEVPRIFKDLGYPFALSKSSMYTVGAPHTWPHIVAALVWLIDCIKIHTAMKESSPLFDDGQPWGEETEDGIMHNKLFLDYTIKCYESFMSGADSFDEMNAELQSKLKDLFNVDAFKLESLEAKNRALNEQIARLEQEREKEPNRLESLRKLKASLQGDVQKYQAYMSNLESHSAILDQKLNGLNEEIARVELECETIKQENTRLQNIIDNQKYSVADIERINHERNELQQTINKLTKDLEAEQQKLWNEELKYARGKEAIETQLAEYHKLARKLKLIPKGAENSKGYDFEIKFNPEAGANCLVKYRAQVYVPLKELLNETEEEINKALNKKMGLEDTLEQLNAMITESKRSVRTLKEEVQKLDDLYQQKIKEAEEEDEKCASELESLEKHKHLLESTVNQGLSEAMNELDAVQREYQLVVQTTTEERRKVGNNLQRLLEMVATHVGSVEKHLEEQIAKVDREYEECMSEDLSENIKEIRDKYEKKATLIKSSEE
row,effect of a mutation on the interaction,Variant
1,with no effect,F44L

# Variants of: B8
# Settings: with pcm1_human PCM1, Q15154
row,effect of a mutation on the interaction,Variant
1,with no effect,F44L

# Variants of: B8
# Settings: with mcrs1_human MCRS1, Q96EZ8
# mcrs1_human MCRS1, Q96EZ8, sequence (Q96EZ8 whole entry): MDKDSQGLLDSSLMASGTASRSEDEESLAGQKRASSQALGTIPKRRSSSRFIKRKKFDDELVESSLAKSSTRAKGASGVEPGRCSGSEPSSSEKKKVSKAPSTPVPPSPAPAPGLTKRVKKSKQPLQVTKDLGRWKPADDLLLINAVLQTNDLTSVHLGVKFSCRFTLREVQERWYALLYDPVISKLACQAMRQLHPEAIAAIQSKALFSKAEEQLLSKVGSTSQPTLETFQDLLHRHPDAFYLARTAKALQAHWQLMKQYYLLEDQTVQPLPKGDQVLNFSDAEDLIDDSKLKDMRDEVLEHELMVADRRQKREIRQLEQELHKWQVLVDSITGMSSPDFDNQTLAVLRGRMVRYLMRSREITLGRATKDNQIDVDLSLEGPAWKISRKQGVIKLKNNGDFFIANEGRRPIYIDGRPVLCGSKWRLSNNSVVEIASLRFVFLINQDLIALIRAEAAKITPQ
row,effect of a mutation on the interaction,Variant
1,with no effect,F44L

# Variants of: B8
# Settings: with txlna_human TXLNA
row,effect of a mutation on the interaction,Variant
1,with no effect,F44L
